Publication PMC2408616, “Modular Organization and Combinatorial Energetics of Proline–Tyrosine Nuclear Localization Signals” (PLoS Biology, 2008)

Experiments:
Kap104p [1] = molecular target: T1, Kap104p (yeast (S. cerevisiae), UniProt P38217 1-918); test: ITC
T1 chain: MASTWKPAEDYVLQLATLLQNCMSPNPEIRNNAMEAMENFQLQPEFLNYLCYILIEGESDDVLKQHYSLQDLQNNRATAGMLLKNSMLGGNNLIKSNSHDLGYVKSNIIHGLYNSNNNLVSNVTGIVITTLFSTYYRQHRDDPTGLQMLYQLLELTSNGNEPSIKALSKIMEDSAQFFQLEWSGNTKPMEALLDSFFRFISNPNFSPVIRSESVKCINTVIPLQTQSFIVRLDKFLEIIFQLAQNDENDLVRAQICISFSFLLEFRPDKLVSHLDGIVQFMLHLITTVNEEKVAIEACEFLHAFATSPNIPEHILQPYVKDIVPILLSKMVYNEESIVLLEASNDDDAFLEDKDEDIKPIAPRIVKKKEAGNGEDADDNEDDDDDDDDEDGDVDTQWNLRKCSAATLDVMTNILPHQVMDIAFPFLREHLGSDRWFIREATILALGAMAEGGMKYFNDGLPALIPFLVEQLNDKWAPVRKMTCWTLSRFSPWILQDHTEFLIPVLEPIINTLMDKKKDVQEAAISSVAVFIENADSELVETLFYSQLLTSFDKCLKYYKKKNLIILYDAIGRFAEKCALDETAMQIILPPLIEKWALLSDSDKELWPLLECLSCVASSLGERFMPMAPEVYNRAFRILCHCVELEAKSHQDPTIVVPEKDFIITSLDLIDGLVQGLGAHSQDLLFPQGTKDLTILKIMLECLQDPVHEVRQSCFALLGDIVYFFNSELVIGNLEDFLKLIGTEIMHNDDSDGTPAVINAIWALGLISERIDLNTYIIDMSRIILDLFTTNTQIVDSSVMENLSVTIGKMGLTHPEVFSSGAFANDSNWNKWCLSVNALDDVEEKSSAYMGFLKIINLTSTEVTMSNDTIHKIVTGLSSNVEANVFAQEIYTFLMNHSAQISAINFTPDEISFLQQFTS

Kap104p [2] = molecular target: T2, Kap104p (yeast (S. cerevisiae), UniProt P38217 1-918); test: ITC; 90–350 μM MBP-NLS titrated into 9–35 μM Kap104p in the cell; 20 °C; 20 mM Tris pH 7.5, 100 mM NaCl, 2 mM β-mercaptoethanol, 10% glycerol; 35 injections of 8 μl; single-site model; settings: both partners purified
T2 construct: Kap104p, yeast homolog of Kapβ2; gene a gift from J. Aitchison, subcloned into pGEX-Tev; also called yeast Karyopherin β2 homolog; source: E. coli Rosetta(DE3)pLysS, purified (glutathione sepharose, TEV cleavage, anion exchange, gel filtration)
T2 sequence (looked up): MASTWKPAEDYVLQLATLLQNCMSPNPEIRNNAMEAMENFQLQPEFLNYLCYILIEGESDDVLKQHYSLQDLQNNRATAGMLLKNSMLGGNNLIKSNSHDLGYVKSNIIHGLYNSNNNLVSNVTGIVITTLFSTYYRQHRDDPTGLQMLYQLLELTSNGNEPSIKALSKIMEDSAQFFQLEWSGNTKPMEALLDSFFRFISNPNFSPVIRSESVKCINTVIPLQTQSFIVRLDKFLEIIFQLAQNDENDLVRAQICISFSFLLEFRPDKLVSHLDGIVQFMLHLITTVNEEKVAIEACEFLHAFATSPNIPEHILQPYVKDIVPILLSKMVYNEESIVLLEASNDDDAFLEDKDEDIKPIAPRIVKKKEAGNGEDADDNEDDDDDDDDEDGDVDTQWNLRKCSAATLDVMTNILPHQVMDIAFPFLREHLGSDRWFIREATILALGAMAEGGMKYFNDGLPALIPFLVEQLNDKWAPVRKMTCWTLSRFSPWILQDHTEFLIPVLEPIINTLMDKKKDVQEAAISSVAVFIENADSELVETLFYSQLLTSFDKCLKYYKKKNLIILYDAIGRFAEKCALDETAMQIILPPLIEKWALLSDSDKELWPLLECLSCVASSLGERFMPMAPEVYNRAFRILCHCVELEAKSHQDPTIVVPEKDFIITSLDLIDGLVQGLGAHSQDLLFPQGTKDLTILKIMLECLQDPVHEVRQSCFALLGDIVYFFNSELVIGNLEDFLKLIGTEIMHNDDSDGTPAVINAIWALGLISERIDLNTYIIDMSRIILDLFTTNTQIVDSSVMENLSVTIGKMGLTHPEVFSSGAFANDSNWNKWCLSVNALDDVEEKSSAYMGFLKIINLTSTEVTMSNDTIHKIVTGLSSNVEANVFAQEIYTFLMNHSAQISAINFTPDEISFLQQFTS

Kap104p, P38217 = molecular target: T3, Kap104p, P38217; test: ITC
T3 chain: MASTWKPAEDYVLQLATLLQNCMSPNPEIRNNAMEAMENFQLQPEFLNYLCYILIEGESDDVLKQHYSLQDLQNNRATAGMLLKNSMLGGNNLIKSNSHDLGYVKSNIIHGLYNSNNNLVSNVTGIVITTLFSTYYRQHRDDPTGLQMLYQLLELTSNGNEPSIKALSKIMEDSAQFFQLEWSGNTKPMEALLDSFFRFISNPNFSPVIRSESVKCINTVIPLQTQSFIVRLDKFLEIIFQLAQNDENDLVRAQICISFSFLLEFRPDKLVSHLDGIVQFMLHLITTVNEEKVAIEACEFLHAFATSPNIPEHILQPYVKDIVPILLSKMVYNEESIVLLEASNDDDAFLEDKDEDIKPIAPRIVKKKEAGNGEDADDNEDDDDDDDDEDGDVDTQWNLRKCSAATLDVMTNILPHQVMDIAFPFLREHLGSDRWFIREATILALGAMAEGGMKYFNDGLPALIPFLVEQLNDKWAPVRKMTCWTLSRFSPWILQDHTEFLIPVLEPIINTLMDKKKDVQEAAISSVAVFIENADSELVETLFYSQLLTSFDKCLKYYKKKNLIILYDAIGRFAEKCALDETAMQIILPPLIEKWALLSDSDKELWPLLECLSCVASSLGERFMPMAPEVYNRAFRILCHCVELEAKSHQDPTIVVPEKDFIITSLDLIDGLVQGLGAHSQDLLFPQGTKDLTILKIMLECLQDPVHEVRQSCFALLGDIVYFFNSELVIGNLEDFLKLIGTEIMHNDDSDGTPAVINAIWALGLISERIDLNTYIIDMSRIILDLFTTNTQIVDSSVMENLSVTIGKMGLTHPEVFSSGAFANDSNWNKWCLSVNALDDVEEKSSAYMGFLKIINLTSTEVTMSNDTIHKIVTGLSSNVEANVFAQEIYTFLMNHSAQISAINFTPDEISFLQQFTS

B1: MBP–Hrp1p NLS R524A (peptide)
chain: RDRNDRDRDYNHRSGGNHRRNGRGGRGGYNARNNGYHPYNR
Binder B1 has a Kd (Kap104p [1]) of 37 nM.

B2: MBP–Hrp1p NLS R512A, 524RR525/AA (peptide)
chain: RDRNDRDRDYNHRSGGNHARNGRGGRGGYNAANNGYHPYNR
For B2, the Kd (Kap104p [1]) was 44 nM.

B3: MBP–Hrp1p NLS R512A, Y529A (peptide)
chain: RDRNDRDRDYNHRSGGNHARNGRGGRGGYNRRNNGAHPYNR
B3 was tested, and the Kd (Kap104p [1]) was 60 nM.

B4: MBP–Hrp1p NLS R525A (peptide)
chain: RDRNDRDRDYNHRSGGNHRRNGRGGRGGYNRANNGYHPYNR
In the case of B4, the Kd (Kap104p [1]) is reported as 13 nM.

B5: MBP–Hrp1p NLS Y529L (domain or fragment, S. cerevisiae, UniProt Q99383 494-534, looked up)
chain: RDRNDRDRDYNHRSGGNHRRNGRGGRGGYNRRNNGLHPYNR
notes: Hrp1p NLS, residues 494-534; source: E. coli BL21(DE3), purified (amylose resin, cation exchange)
B5 was tested, and the binding result (Kap104p [2]) was “binds” and the Kd (Kap104p [1]) was 37 nM.

B6: MBP–Hrp1p NLS R512, R513, R516, R519/KKKK (domain or fragment, S. cerevisiae, UniProt Q99383 494-534, looked up)
chain: RDRNDRDRDYNHRSGGNHKKNGKGGKGGYNRRNNGYHPYNR
notes: Hrp1p NLS, residues 494-534; also called quadruple mutant (arginines to lysines); source: E. coli BL21(DE3), purified (amylose resin, cation exchange)
In the case of B6, the binding result (Kap104p [2]) is reported as “binds” and the Kd (Kap104p [1]) is reported as 36 nM.

B7: MBP–Hrp1p NLS Y529A (domain or fragment, S. cerevisiae, UniProt Q99383 494-534, looked up)
chain: RDRNDRDRDYNHRSGGNHRRNGRGGRGGYNRRNNGAHPYNR
notes: as for B5
B7 was tested, and the “KD,mutant/KD,wild type” value (Kap104p [2]) was 4 and the Kd (Kap104p [1]) was 143 nM.

B8: MBP–Hrp1p NLS R512,R513,R516,R519/AAAA (domain or fragment, S. cerevisiae, UniProt Q99383 494-534, looked up)
chain: RDRNDRDRDYNHRSGGNHAANGAGGAGGYNRRNNGYHPYNR
notes: Hrp1p NLS, residues 494-534; also called quadruple mutant (arginines to alanines); source: E. coli BL21(DE3), purified (amylose resin, cation exchange)
With B8 the “fold decrease in binding against wild type” value (Kap104p [2]) was 5 fold and the Kd (Kap104p [1]) was 194 nM.

B9: MBP–Hrp1p NLS 519RGGYN523/AAAAA (domain or fragment, S. cerevisiae, UniProt Q99383 494-534, looked up)
chain: RDRNDRDRDYNHRSGGNHRRNGRGGAAAAARRNNGYHPYNR
notes: as for B5
B9 was tested, and the binding result (Kap104p [2]) was “binds”, the ddG (Kap104p, P38217; chain shown with the change) was -0.4 kcal/mol and the ratio to parent (Kap104p, P38217; chain shown with the change) was 0.5. It also gave an other: TΔS (Kap104p, P38217; chain shown with the change;, parent: 0.09 ± 0.7) of -3.8 kcal/mol/K, a Kd (Kap104p, P38217; chain shown with the change;, parent: 32 ± 16) of 17 nM and an other: ΔH (Kap104p, P38217; chain shown with the change;, parent: -10.0 ± 0.5) of -14.2 kcal/mol. The dG (Kap104p, P38217; chain shown with the change;, parent: -10.1 ± 0.3) was -10.4 kcal/mol.
